Data taken from doi:10.1101/666776.

Tested on: Cascade/I-C (Cas5, Cas8c, Cas7 with crRNA) (Bacillus halodurans C-125)
Experiment: EMSA?

TACTTCCAATCCAATGCAGGTACCATCGAAAGTAACTCCATCCATAACTAAGCAACCTGTACTAGTAATCGAAAGCTTTTATCCACTTCCAATGTTATTA (double strand) [100 bp target, TTC PAM]
Kd: 148 nM
